Measurements: publication PMC3271731 (Nature, 2011)
Where two headings read alike, the source gives them in different places.

B1: Pseudomonas aeruginosa 3-methylcrotonyl-CoA carboxylase β subunit (enzyme, UniProt Q9I297 1-535, looked up)
chain: MAILHTQINPRSAEFAANAATMLEQVNALRTLLGRIHEGGGSAAQARHSARGKLLVRERINRLLDPGSPFLELSALAAHEVYGEEVAAAGIVAGIGRVEGVECMIVGNDATVKGGTYYPLTVKKHLRAQAIALENRLPCIYLVDSGGANLPRQDEVFPDREHFGRIFFNQANMSARGIPQIAVVMGSCTAGGAYVPAMSDETVMVREQATIFLAGPPLVKAATGEVVSAEELGGADVHCKVSGVADHYAEDDDHALAIARRCVANLNWRKQGQLQCRAPRAPLYPAEELYGVIPADSKQPYDVREVIARLVDGSEFDEFKALFGTTLVCGFAHLHGYPIAILANNGILFAEAAQKGAHFIELACQRGIPLLFLQNITGFMVGQKYEAGGIAKHGAKLVTAVACARVPKFTVLIGGSFGAGNYGMCGRAYDPRFLWMWPNARIGVMGGEQAAGVLAQVKREQAERAGQQLGVEEEAKIKAPILEQYEHQGHPYYSSARLWDDGVIDPAQTREVLALALSAALNAPIEPTAFGVFRM
B2: Pseudomonas aeruginosa 3-methylcrotonyl-CoA carboxylase α subunit (enzyme)
chain: MNPDYRSIQRLLVANRGEIACRVMRSARALGIGSVAVHSDIDRHARHVAEADIAVDLGGAKPADSYLRGDRIIAAALASGAQAIHPGYGFLSENADFARACEEAGLLFLGPPAAAIDAMGSKSAAKALMEEAGVPLVPGYHGEAQDLETFRREAGRIGYPVLLKAAAGGGGKGMKVVEREAELAEALSSAQREAKAAFGDARMLVEKYLLKPRHVEIQVFADRHGHCLYLNERDCSIQRRHQKVVEEAPAPGLGAELRRAMGEAAVRAAQAIGYVGAGTVEFLLDERGQFFFMEMNTRLQVEHPVTEAITGLDLVAWQIRVARGEALPLTQEQVPLNGHAIEVRLYAEDPEGDFLPASGRLMLYREAAAGPGRRVDSGVREGDEVSPFYDPMLAKLIAWGETREEARQRLLAMLAETSVGGLRTNLAFLRRILGHPAFAAAELDTGFIARHQDDLLPAPQALPEHFWQAAAEAWLQSEPGHRRDDDPHSPWSRNDGWRSALARESDLMLRCRDERRCVRLRHASPSQYRLDGDDLVSRVDGVTRRSAALRRGRQLFLEWEGELLAIEAVDPIAEAEAAHAHQGGLSAPMNGSIVRVLVEPGQTVEAGATLVVLEAMKMEHSIRAPHAGVVKALYCSEGELVEEGTPLVELDENQA
modifications: biotinylated Lys681 (numbered by the equivalent residue of HsMCC)

What was measured:
crystal structure [1] = target: the molecule itself; assay: crystal structure
crystal structure [2] = target: the molecule itself; assay: crystal structure; remark: listed apart in the source

Protein | stoichiometry N (crystal structure [1]) | stoichiometry N (crystal structure [2])
B1 | 6 | –
B2 | – | 3
